Experimental findings from paper PMC10831263 (The Journal of Biological Chemistry, 2023) are described below.

The chains are these.
T1: GST-HERC2 (2540–2700th) (human, UniProt O95714 2540-2700)
T1 construct: also called HECT and RLD domains-containing E3 ubiquitin protein ligase 2; not shown: GST, N-terminal, kept
T1 sequence (looked up): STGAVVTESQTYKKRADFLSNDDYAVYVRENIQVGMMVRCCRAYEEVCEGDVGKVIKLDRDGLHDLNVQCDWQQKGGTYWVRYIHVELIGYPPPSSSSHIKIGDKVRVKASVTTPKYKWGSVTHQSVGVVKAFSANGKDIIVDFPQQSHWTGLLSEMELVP

B1: his-tagged NCOA4 (383–522nd) C422A (domain or fragment, human, UniProt Q13772-1 383-522, looked up)
chain: SMVTEDWLVQNHQDPCKVEEVCRANEPCTSFAECVCDENAEKEALYKWLLKKEGKDKNGMPVEPKPEPEKHKDSLNMWLCPRKEVIEQTKAPKAMTPSRIADSFQVIKNSPLSEWLIRPPYKEGSPKEVPGTEDRAGKQK
B2: his-tagged NCOA4 (383–522nd) C418A (domain or fragment, human, UniProt Q13772-1 383-522, looked up)
chain: SMVTEDWLVQNHQDPCKVEEVCRANEPCTSFAECVADENCEKEALYKWLLKKEGKDKNGMPVEPKPEPEKHKDSLNMWLCPRKEVIEQTKAPKAMTPSRIADSFQVIKNSPLSEWLIRPPYKEGSPKEVPGTEDRAGKQK
B3: his-tagged NCOA4 (383–522nd) C410A (domain or fragment, human, UniProt Q13772-1 383-522, looked up)
chain: SMVTEDWLVQNHQDPCKVEEVCRANEPATSFAECVCDENCEKEALYKWLLKKEGKDKNGMPVEPKPEPEKHKDSLNMWLCPRKEVIEQTKAPKAMTPSRIADSFQVIKNSPLSEWLIRPPYKEGSPKEVPGTEDRAGKQK
B4: his-tagged NCOA4 (383–522nd) C416A (domain or fragment, human, UniProt Q13772-1 383-522, looked up)
chain: SMVTEDWLVQNHQDPCKVEEVCRANEPCTSFAEAVCDENCEKEALYKWLLKKEGKDKNGMPVEPKPEPEKHKDSLNMWLCPRKEVIEQTKAPKAMTPSRIADSFQVIKNSPLSEWLIRPPYKEGSPKEVPGTEDRAGKQK
B5: his-tagged NCOA4 (383–522nd) C398S (domain or fragment, human, UniProt Q13772-1 383-522, looked up)
chain: SMVTEDWLVQNHQDPSKVEEVCRANEPCTSFAECVCDENCEKEALYKWLLKKEGKDKNGMPVEPKPEPEKHKDSLNMWLCPRKEVIEQTKAPKAMTPSRIADSFQVIKNSPLSEWLIRPPYKEGSPKEVPGTEDRAGKQK
notes: C398A was insoluble, so C398S was made in its place
B6: his-tagged NCOA4 (383–522nd) C404A (domain or fragment, human, UniProt Q13772-1 383-522, looked up)
chain: SMVTEDWLVQNHQDPCKVEEVARANEPCTSFAECVCDENCEKEALYKWLLKKEGKDKNGMPVEPKPEPEKHKDSLNMWLCPRKEVIEQTKAPKAMTPSRIADSFQVIKNSPLSEWLIRPPYKEGSPKEVPGTEDRAGKQK
B7: his-tagged NCOA4 (383–522nd) C462A (domain or fragment, human, UniProt Q13772-1 383-522, looked up)
chain: SMVTEDWLVQNHQDPCKVEEVCRANEPCTSFAECVCDENCEKEALYKWLLKKEGKDKNGMPVEPKPEPEKHKDSLNMWLAPRKEVIEQTKAPKAMTPSRIADSFQVIKNSPLSEWLIRPPYKEGSPKEVPGTEDRAGKQK
B8: his-tagged NCOA4 (383–522nd) recombinant protein, WT (domain or fragment, human, UniProt Q13772-1 383-522, looked up)
chain: SMVTEDWLVQNHQDPCKVEEVCRANEPCTSFAECVCDENCEKEALYKWLLKKEGKDKNGMPVEPKPEPEKHKDSLNMWLCPRKEVIEQTKAPKAMTPSRIADSFQVIKNSPLSEWLIRPPYKEGSPKEVPGTEDRAGKQK
notes: Expressed from pQE80L; also called purified NCOA4; not shown: His6, N-terminal, kept
B9: his-tagged NCOA4 (383–522nd) 4C > A (domain or fragment, human, UniProt Q13772-1 383-522, looked up)
chain: SMVTEDWLVQNHQDPCKVEEVARANEPATSFAEAVCDENAEKEALYKWLLKKEGKDKNGMPVEPKPEPEKHKDSLNMWLCPRKEVIEQTKAPKAMTPSRIADSFQVIKNSPLSEWLIRPPYKEGSPKEVPGTEDRAGKQK
notes: also called four cysteine residues substitution by alanine; not shown: His6, N-terminal, kept

T2 sequence (P02794 whole entry): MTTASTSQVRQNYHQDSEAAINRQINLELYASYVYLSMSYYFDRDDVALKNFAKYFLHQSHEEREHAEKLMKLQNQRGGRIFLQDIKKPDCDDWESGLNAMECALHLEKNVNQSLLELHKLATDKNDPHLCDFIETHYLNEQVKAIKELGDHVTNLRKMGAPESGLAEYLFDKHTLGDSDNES

The first data set deals with the molecule itself. The experiment in a line: nonreducing gel electrophoresis; purified his-tagged NCOA4 (383–522nd) WT or mutants on a nonreducing gel, with or without β-ME (10 mM) or DTT (5 mM); the reductants converted the dimer into monomers.
Conditions: not given
B1: the binding result is given as “binds”.

With B2, the binding result is recorded as “binds”.

For B3, the binding result is “binds”.

Regarding B4, the binding result is on record as “binds”.

Consider B5, for which the binding result is reported as “binds”.

Turning to B6, the binding result is given as “binds”.

As to B7, the binding result is listed as “binds”.

The next data set addresses T2, GST-tagged FTH (human, UniProt P02794 1-183).
T2 construct: ferritin heavy chain 1 (FTH), human; also called GST-FTH; ferritin heavy chain 1; not shown: GST, N-terminal, kept
The experiment in a line: pull-down; His-pulldown; His-tagged NCOA4 (383–522nd) WT or mutants and GST-tagged FTH, each expressed in E. coli and purified; read by immunoblotting. The settings on record: both partners purified.
B8: the binding result is given as “binds”.

For the molecule B9, the binding result is recorded as “binds”.

The target of another data set is T1, GST-HERC2 (2540–2700th). In words: pull-down; GST pull-down of HERC2 with Fe-S-bound NCOA4 (383–522nd): freshly purified or reconstituted. The following applies: both partners purified.
For B8, the binding result was “binds”.
